Measured values: patent US20210363249A1 (INNATE PHARMA, published 2021)

Key:
Human Siglec-9 [1] = molecular target: T1, Human Siglec-9 (human, UniProt Q9Y336 18-463); assay: flow cytometry on fresh purified human NK cells gated CD3-/CD56+, isotype control staining
T1 construct: Expressed on transfected CHO cells and YTS cells; also called huSiglec-9; CD329

Human Siglec-7 (human) = Human Siglec-7 (human) (UniProt Q9Y286); assay: as above
Human Siglec-9 [2] = molecular target: T1, Human Siglec-9; assay: flow cytometry titration on neuraminidase-treated (desialylated) moDCs; goat F(ab')2 anti-human IgG (Fc) PE
Description: (§1) moDC were desialylated for 2 hours with 25 mU neuraminidase (Roche Diagnostics).
(§2) Binding on moDCs and neuraminidase treated moDCs was tested in a titration experiment by flow cytometry. Cells were incubated 1 h in Staining Buffer (SB) with primary antibodies at 10 ug/ml and a series of dilution of 1:10. They were washed two times with SB, then incubated 30 min with a Goat F(ab′)² Anti-Human IgG (Fc) PE (Jackson lmmunoresearch), and washed twice with SB.

Human Siglec-9 [3] = molecular target: T1, Human Siglec-9; assay: flow cytometry titration on moDC against neuraminidase-treated moDC
Description: as §1, §2

T1 sequence (Q9Y336 18-463): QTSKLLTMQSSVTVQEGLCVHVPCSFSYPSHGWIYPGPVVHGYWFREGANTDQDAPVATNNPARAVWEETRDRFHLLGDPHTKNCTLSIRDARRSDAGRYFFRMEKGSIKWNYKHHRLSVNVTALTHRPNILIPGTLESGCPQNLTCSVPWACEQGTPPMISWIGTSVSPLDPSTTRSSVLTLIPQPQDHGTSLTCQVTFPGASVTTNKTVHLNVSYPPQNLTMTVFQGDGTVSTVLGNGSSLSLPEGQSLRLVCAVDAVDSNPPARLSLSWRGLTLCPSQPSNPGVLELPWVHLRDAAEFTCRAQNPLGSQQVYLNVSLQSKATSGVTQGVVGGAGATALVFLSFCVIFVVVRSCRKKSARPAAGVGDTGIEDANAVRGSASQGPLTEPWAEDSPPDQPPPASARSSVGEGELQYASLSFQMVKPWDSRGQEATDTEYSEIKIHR
Human Siglec-7 (human), sequence (Q9Y286 19-467): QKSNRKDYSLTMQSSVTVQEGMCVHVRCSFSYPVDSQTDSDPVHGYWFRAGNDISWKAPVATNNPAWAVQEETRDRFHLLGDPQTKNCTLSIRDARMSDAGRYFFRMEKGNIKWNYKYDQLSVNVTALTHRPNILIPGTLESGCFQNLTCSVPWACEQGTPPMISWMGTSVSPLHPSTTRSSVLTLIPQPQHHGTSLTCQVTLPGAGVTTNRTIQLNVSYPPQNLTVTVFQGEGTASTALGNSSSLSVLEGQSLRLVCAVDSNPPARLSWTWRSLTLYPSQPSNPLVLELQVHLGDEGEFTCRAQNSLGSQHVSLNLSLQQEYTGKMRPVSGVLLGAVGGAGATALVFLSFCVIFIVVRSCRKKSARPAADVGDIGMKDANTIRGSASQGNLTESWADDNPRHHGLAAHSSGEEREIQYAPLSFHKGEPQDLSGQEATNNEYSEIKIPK

Row | Molecule | EC50 (read off the curve) (Human Siglec-9 [2]) [µg/mL] | fold enhancement of EC50 after neuraminidase treatment of moDC (Human Siglec-9 [3]) [fold] | further results
1 | Isotype control - PE (antibody) | – | – | percent of NK cells in quadrant Q2 (isotype APC positive, isotype PE positive) (Human Siglec-9 [1]): 0.34; percent of NK cells in quadrant Q3 (isotype APC negative, isotype PE positive) (Human Siglec-9 [1]): 2.54
2 | Isotype control - APC (antibody) | – | – | percent of NK cells in quadrant Q1 (isotype APC positive, isotype PE negative) (Human Siglec-7 (human)): 0.975; percent of NK cells in quadrant Q2 (isotype APC positive, isotype PE positive) (Human Siglec-7 (human)): 0.34
3 | mAbA (antibody, V domains shown, Anti-Siglec-9) VH: QVQLQQPGAELVKPGSPVKLSCKASYFTFTSYWMHWVRQRPGQGLEWIGEINPSNGHTNYNEKFESKATLTVDRSSSTAYMQLSSLTSEDSAVFYCANGVESYDFDDALDYWGQGTSVTVSS VL: DIQMTQTTSSLSASLGDRVTISCRASQDINNYLNWYQQKPDGTIKLLIYYTSRLHSGVPSRFSGSGSGTDYSLTINNLEQEDIATYFCQQGNTLPFTFGGGTKLEIK | ~0.03 | 10 | –
4 | mAbC (antibody, V domains shown, Anti-Siglec-9) VH: QIQLVQSGPELKKPGETVKISCKASGYTFTNYEMNWVKEAPGKGLKWMGWINTYTGESTYADDFKGRFAFSLETSASTVYLQINNLKDEDVATYFCVRDDYGRSYGFAYWGQGTLVTVSA VL: NIVLTQSPASLTVSLGQRANISCRASESVDSYGNSFMHWYQQKPGQPPKLLIYLASKLESGVPARFSGSGSRTDFTLTIDPVETDDAATYYCHQNNEDPPWTFGGGTKLEIK | ~0.03 | 10 | –
5 | mAbD (antibody, V domains shown, Anti-Siglec-9) VH: QIQLVQSGPELKKPGETVKISCKASGYTFTDYSMHWVKQAPGKGLKWMGWIITETGEPTYADDFRGRFAFSLETSANTAYLQINNLKNEDTATYFCARDFDGYWGQGTTLTVSS VL: DILMTQSPASLSASVGETVTITCRASENIYSYLAWYQQKRGKSPQFLVYNAKTLTEGVPSRFRGSGSGTQFSLKINSLQPEDFGTYYCQHHYGFPWTFGGGTKLEIK | ~0.09 | 10 | –
